Laboratory results from patent US20250215444.

Columns and labels:
[1] = molecular target: T1, LST8-1 fused C-terminally to the GSrhino tag, TAP-purified from PSB-D cell cultures, Q9LV27
T1 chain: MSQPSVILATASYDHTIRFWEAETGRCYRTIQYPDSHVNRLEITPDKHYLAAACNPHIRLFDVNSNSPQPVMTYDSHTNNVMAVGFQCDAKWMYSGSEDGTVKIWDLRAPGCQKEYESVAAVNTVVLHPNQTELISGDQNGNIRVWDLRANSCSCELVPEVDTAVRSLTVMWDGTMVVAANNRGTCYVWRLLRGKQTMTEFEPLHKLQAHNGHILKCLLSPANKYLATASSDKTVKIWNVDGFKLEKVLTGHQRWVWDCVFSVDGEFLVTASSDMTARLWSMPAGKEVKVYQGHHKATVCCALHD

[2] = molecular target: T2, Raptor1B fused N- or C-terminally to the GSrhino TAP tag, TAP-purified from PSB-D cell cultures
T2 chain: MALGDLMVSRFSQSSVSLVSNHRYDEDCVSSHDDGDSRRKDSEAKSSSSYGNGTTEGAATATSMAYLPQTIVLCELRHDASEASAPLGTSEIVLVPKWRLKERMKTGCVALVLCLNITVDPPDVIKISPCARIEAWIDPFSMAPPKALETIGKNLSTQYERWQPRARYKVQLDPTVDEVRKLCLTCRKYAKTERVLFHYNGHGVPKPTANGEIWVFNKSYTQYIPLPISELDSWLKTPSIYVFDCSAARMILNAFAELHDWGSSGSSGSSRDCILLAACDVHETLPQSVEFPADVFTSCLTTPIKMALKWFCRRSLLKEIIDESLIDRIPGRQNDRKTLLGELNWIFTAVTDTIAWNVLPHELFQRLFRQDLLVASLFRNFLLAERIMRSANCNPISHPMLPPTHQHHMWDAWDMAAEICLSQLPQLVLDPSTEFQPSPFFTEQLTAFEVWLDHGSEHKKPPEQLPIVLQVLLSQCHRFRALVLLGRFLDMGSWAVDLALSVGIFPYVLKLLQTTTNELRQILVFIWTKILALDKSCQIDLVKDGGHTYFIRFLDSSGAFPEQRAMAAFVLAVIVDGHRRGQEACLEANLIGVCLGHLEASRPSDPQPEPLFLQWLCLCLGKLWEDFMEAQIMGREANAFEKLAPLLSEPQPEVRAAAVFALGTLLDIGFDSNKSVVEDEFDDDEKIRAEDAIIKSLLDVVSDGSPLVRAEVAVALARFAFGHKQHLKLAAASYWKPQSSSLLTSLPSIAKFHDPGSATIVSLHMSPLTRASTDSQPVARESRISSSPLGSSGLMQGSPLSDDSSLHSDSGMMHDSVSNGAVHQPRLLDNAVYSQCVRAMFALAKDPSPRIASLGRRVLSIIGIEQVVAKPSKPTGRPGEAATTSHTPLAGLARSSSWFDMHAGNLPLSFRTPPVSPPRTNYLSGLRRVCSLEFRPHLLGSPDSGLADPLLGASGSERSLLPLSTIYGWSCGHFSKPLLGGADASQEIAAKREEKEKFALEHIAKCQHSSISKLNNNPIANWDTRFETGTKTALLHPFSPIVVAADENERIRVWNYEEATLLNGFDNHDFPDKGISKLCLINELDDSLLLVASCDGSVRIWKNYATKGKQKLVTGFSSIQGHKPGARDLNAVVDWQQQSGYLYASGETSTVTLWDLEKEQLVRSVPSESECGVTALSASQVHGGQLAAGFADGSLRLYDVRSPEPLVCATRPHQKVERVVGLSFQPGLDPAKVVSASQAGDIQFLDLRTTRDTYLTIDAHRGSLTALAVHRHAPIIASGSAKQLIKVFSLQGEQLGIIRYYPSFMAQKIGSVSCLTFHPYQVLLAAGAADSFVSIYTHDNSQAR

B1: Recombinant RSK1 (ARSK1) kinase, His-MBP fusion produced in E. coli BL21 (protein)
chain: MAVFKKKKTSLTSLFLGCYKAKNVSKYEGGEKAVMKIRTCPAFKRLSLSDISDPSSPMSVMDDLSHSFTSQKLRLFTLSELRVITHNFSRSNMLGEGGFGPVYKGFIDDKVKPGIEAQPVAVKALDLHGHQGHREWLAEILFLGQLSNKHLVKLIGFCCEEEQRVLVYEYMPRGSLENQLFRRNSLAMAWGIRMKIALGAAKGLAFLHEAEKPVIYRDFKTSNILLDSDYNAKLSDFGLAKDGPEGEHTHVTTRVMGTQGYAAPEYIMTGHLTTMNDVYSFGVVLLELITGKRSMDNTRTRREQSLVEWARPMLRDQRKLERIIDPRLANQHKTEAAQVAASLAYKCLSQHPKYRPTMCEVVKVLESIQEVDIRKHDGNNNKEGKKFVDINKFRHHRKGKRRVNIAYSDSLVYKESKAKQNDGI
Q: Which results are given for B1?
A: in vitro kinase assay [1]: ARSK1 could not phosphorylate these two proteins; in vitro kinase assay with ATP-P32, SDS-PAGE and autoradiography [2]: In the presence of ARSK1, the RAPTOR1B phosphosignal (lanes 2 and 3, rectangle) is higher compared to the control (lane 4; no ARSK1)
